In publication PMC10138814, “Structural Insights into the Binding of Red Fluorescent Protein mCherry-Specific Nanobodies” (International Journal of Molecular Sciences, 2023):

Assays:
Details in all cases: both partners purified
[1] = target: T1, mCherry (Discosoma sp. DsRed-derived, engineered …, chromophore (residues not given)); assay: BLI; His-SUMO-LaM nanobody (100 nM) loaded on Ni-NTA biosensors; mCherry or DsRed in solution; 20 mM HEPES pH 7.4, 150 mM NaCl, 0.005% Tween-20; association 600 s, dissociation 600 s; 1:1 global fit
T1 construct: Engineered monomeric derivative of DsRed; also called His10-TEV site-mCherry (before cleavage); H10T-mCherry; source: E. coli BL21(DE3), purified (Ni-NTA, TEV cleavage on the column); not shown: His10, N-terminal, cleaved

[2] = target: T1, mCherry; assay: ITC; 100 uM nanobody in the syringe into 10 uM mCherry (or 8.9 uM mCherry-LaM1 or mCherry-LaM3 complex) in the cell; 25 °C; one set of sites
[3] = target: T2, DsRed (Discosoma sp., UniProt Q9U6Y8); assay: BLI; His-SUMO-LaM nanobody (100 nM) loaded on Ni-NTA biosensors; mCherry or DsRed in solution; 20 mM HEPES pH 7.4, 150 mM NaCl, 0.005% Tween-20; association 600 s, dissociation 600 s; 1:1 global fit
T2 construct: DsRed red fluorescent protein; PDB 1ZGO was used for structural alignment; His6-SUMO-DsRed printed as 39.6 kD; also called tetrameric DsRed protein; His6-SUMO-DsRed (before cleavage); source: prokaryotic expression system, purified (tags removed by ULP1 on the column); not shown: His6, N-terminal, cleaved; SUMO, N-terminal, cleaved
T2 sequence (Q9U6Y8 whole entry): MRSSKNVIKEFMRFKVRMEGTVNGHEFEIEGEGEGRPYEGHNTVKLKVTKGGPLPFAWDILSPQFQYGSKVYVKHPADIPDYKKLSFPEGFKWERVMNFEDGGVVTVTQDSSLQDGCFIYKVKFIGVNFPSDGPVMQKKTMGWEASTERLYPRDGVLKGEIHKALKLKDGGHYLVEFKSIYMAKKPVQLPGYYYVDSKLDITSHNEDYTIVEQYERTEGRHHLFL

Row | Binder | Kd [1] [nM] | koff [1] [s⁻¹] | kon [1] [M⁻¹ s⁻¹] | Kd [2] [nM] | dH [2] [kcal/mol] | stoichiometry N [2] [sites] | Kd [3] [nM] | koff [3] [s⁻¹] | kon [3] [M⁻¹ s⁻¹]
1 | His-SUMO-LaM8 (VHH, held in PDB 8IM0; Captured by its His tag on NTA biosensors in BLI; vector pET28a-SUMO; also called Sumo-His tagged LaM8; source: E. coli BL21(DE3), purified (Ni-NTA, eluted with imidazole); not shown: His, N-terminal, kept; SUMO, N-terminal, kept) VHH: QVQLVESGGGLVQAGGSLRLSCAVSGRPFSEYNLGWFRQAPGKEREFVARIRSSGTTVYTDSVKGRFSASRDNAKNMGYLQLNSLEPEDTAVYYCAMSRVDTDSPAFYDYWGQGTQVTVST | 36.8 | 0.00926 | 252000 | – | – | – | – | – | –
2 | LaM8 (VHH, Tag-removed form; also called llama nanobody against mCherry 8; source: E. coli BL21(DE3), purified (Ni-NTA, ULP1 cleavage on the column, ion exchange or size exclusion chromatography); not shown: His, N-terminal, cleaved; SUMO, N-terminal, cleaved) VHH: QVQLVESGGGLVQAGGSLRLSCAVSGRPFSEYNLGWFRQAPGKEREFVARIRSSGTTVYTDSVKGRFSASRDNAKNMGYLQLNSLEPEDTAVYYCAMSRVDTDSPAFYDYWGQGTQVTVST | – | – | – | 199 | -11.2 ± 1.51 | 0.842 | – | – | –
3 | His-SUMO-LaM1 (VHH, held in PDB 8IM1; Captured by its His tag on NTA biosensors in BLI; vector pET28a-SUMO; also called Sumo-His tagged LaM1; source: E. coli BL21(DE3), purified (Ni-NTA, eluted with imidazole); not shown: His, N-terminal, kept; SUMO, N-terminal, kept) VHH: QVQLVESGGGLVQAGDSLRLSCAASGRTFENYAMGWFRQAPGKEREFVGAVSWGGGRTYYADNVKGRFTISRDNAKKNTVYLQMNSLKPEDTAVYYCAAKSVLTIATMRVPDEYNYWGQGTQVTVS | 12.9 | 0.00117 | 91300 | – | – | – | – | – | –
4 | LaM1 (VHH, Tag-removed form; also called llama nanobody against mCherry 1; source: E. coli BL21(DE3), purified (Ni-NTA, ULP1 cleavage on the column, ion exchange or size exclusion chromatography); not shown: His, N-terminal, cleaved; SUMO, N-terminal, cleaved) VHH: QVQLVESGGGLVQAGDSLRLSCAASGRTFENYAMGWFRQAPGKEREFVGAVSWGGGRTYYADNVKGRFTISRDNAKKNTVYLQMNSLKPEDTAVYYCAAKSVLTIATMRVPDEYNYWGQGTQVTVS | – | – | – | 289 | -28.7 ± 0.906 | 1 | – | – | –
5 | His-SUMO-LaM3 (VHH, held in PDB 8ILX; Captured by its His tag on NTA biosensors in BLI; vector pET28a-SUMO; also called Sumo-His tagged LaM3; source: E. coli BL21(DE3), purified (Ni-NTA, eluted with imidazole); not shown: His, N-terminal, kept; SUMO, N-terminal, kept) VHH: QVQLVQSGGGLVQAGGSLRLSCAASGRTFSDIAVGWFRQTPGKEREFVAAISWSGLIINYGDSVEDRFTISRDNAKSAVYLQMNSLKPEDTAVYYCAARIGMNYYYAREIEYPYWGQGTQVTVSK | 30.6 | 0.00324 | 106000 | – | – | – | 7130 | 0.000443 | 62.2 ± 1.02
6 | LaM3 (VHH, Tag-removed form; also called llama nanobody against mCherry 3; source: E. coli BL21(DE3), purified (Ni-NTA, ULP1 cleavage on the column, ion exchange or size exclusion chromatography); not shown: His, N-terminal, cleaved; SUMO, N-terminal, cleaved) VHH: QVQLVQSGGGLVQAGGSLRLSCAASGRTFSDIAVGWFRQTPGKEREFVAAISWSGLIINYGDSVEDRFTISRDNAKSAVYLQMNSLKPEDTAVYYCAARIGMNYYYAREIEYPYWGQGTQVTVSK | – | – | – | 13.7 | -13.7 ± 0.157 | 0.913 | – | – | –
